# In paper PMC1472246, “Structural Basis for a Munc13–1 Homodimer to Munc13–1/RIM Heterodimer Switch” (PLoS Biology, 2006):
# Where two headings read alike, the source gives them in different places.
# B1: Munc13–1(3–150) (domain or fragment, rat, UniProt Q62768 3-150, looked up)
# chain: LLCVGVKKAKFDGAQEKFNTYVTLKVQNVKSTTIAVRGSQPSWEQDFMFEINRLDLGLTVEVWNKGLIWDTMVGTVWIPLRTIRQSNEEGPGEWLTLDSQAIMADSEICGTKDPTFHRILLDAHFELPLDIPEEEARYWAKKLEQLNA
# notes: Munc13-1, rat, residues 3-150 (C2A domain and C-terminal extension); Forms a homodimer (AUC); 15N-labelled for NMR; source: bacteria, GST fusion, purified (glutathione-Sepharose, GST cleaved, size-exclusion or ion-exchange chromatography)
# B2: Munc13–1(3–209) (domain or fragment, rat, UniProt Q62768 3-209, looked up)
# chain: LLCVGVKKAKFDGAQEKFNTYVTLKVQNVKSTTIAVRGSQPSWEQDFMFEINRLDLGLTVEVWNKGLIWDTMVGTVWIPLRTIRQSNEEGPGEWLTLDSQAIMADSEICGTKDPTFHRILLDAHFELPLDIPEEEARYWAKKLEQLNAMRDQDEYSFQDQQDKPLPVPSSQCCNWNYFGWGEQNDDPDSAVDDRDSDYRSETSNSIP
# notes: Munc13-1, rat, residues 3-209; Forms a homodimer (AUC); 15N-labelled for NMR; source: bacteria, GST fusion, purified (glutathione-Sepharose, GST cleaved, size-exclusion or ion-exchange chromatography)
# B3: Munc13–1(3–128) (domain or fragment, rat, UniProt Q62768 3-128, looked up)
# chain: LLCVGVKKAKFDGAQEKFNTYVTLKVQNVKSTTIAVRGSQPSWEQDFMFEINRLDLGLTVEVWNKGLIWDTMVGTVWIPLRTIRQSNEEGPGEWLTLDSQAIMADSEICGTKDPTFHRILLDAHFE
# notes: Cloned into a modified pGEX-KG vector with a TEV protease cleavage site; Forms a homodimer (AUC, crystal structure); 15N-labelled for NMR; also called Munc13–1 C2A domain; Munc13–1 C2A-domain homodimer; source: bacteria, GST fusion, purified (glutathione-Sepharose, GST cleaved, size-exclusion or ion-exchange chromatography)
# B4: RIM2α(82–142) (domain or fragment, rat, UniProt Q9JIS1-1 82-142, looked up)
# chain: QQEQKGDAPTCGICHKTKFADGCGHNCSYCQTKFCARCGGRVSLRSNKVMWVCNLCRKQQE
# notes: also called RIM2α ZF domain; RIM2α zinc-finger domain; source: bacteria, GST fusion, purified (glutathione-Sepharose, GST cleaved, size-exclusion or ion-exchange chromatography)
# B5: Munc13–1(3–132) (domain or fragment, rat, UniProt Q62768 3-132, looked up)
# chain: LLCVGVKKAKFDGAQEKFNTYVTLKVQNVKSTTIAVRGSQPSWEQDFMFEINRLDLGLTVEVWNKGLIWDTMVGTVWIPLRTIRQSNEEGPGEWLTLDSQAIMADSEICGTKDPTFHRILLDAHFELPLD
# notes: Forms a homodimer (AUC); source: bacteria, GST fusion, purified (glutathione-Sepharose, GST cleaved, size-exclusion or ion-exchange chromatography)
# Tests used:
# [1] = biological target: RIM2α ZF domain (Rattus norvegicus) (UniProt Q9JIS1); conditions: cited from earlier work
# [2] = biological target: RIM2α ZF domain (Rattus norvegicus) (UniProt Q9JIS1); conditions: cited from earlier work; remark: listed apart in the source
# [3] = biological target: the molecule itself; assay: AUC; sedimentation equilibrium at 20,000-35,000 rpm, 4 °C; 30 mM Tris pH 8.0, 150 mM NaCl, 1 mM TCEP; loading 12.46-13.65 μM; monomer/dimer equilibrium model, dimer to monomers; the paper notes that constants below 50-100 nM are not quite accurate
# [4] = biological target: B1; assay: SEC; gel filtration on Superdex S75 or S200; 30 mM Tris-HCl, 150 mM NaCl, 1 mM TCEP, pH 7.4; isolated proteins and their mixtures (Figures 1B, 4A); conditions: both partners purified
# [5] = biological target: B2; assay: as above; conditions: both partners purified
# [6] = biological target: Munc13–1(3–150)(K32E) (rat) (UniProt Q62768); assay: ITC; 200 μM Rim2α(82-142) injected into 10-20 μM Munc13-1(3-150)(K32E) in the cell; 20 °C; 30 mM Tris pH 7.4, 150 mM NaCl, 1 mM TCEP; single-site model; apparent Kd
Molecule,Kd [3],stoichiometry N [3],also measured
Munc13-1 3-209 (from UniProt Q62768),,,Kd [1]: 70 nM
Munc13-1 3-150 (from UniProt Q62768),,,Kd [2]: 350 nM
B1,5.2 nM,2,
B2,1.9 nM,2,
B3,310 nM,2,
B4,,,binding result [4]: binds; binding result [5]: binds; Kd [6]: 100 nM; stoichiometry N [6]: 1
B5,80 nM,2,
